The source of these data is paper PMC10579713, “Melatonin enhances KCl salinity tolerance by maintaining K+ homeostasis in Malus hupehensis”.

For this data set, the target named is T1, MdWRKY53 (Malus hupehensis (CDS amplified from; …, UniProt A0A498JJJ9 1-351).
T1 sequence: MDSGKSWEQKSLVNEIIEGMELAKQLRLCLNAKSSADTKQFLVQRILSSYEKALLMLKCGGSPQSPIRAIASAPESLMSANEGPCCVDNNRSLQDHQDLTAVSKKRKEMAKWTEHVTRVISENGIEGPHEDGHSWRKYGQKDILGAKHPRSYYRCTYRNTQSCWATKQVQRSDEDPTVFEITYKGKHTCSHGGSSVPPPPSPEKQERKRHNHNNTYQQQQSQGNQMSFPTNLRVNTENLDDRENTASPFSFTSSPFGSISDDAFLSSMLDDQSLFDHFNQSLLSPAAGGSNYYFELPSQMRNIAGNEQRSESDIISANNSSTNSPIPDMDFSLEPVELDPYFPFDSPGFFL
The data set is described as follows: EMSA; unlabeled competitor reduced the binding; LightShift chemiluminescence EMSA kit (Thermo), manufacturer's instructions; buffer, salt, pH and temperature not stated. To be noted: protein: recombinant; tags: GST (N-terminal, pGEX6p-1); blunt. (Mobility shift assays separate free from complexed probe on a gel.)

B1: MdNHX2 promoter W-box probe (dsDNA)
DNA 1: TGCACACGTCTTTCGAAGTTGACCAGATCAGTGTGCTTTGA
DNA 2: TCAAAGCACACTGATCTGGTCAACTTCGAAAGACGTGTGCA
Take B1: the binding result is “binds”.

B2: MdGORK1 promoter W-box probe (dsDNA)
DNA 1: TTATGTCACCTTATGTTTTTGACACAATTTTTATAACGTTGACACAG
DNA 2: CTGTGTCAACGTTATAAAAATTGTGTCAAAAACATAAGGTGACATAA
For the molecule B2, the binding result is listed as “binds”.
